Laboratory results published in IntAct's records for PubMed 20485439.

B1: Eukaryotic translation initiation factor 5 (Saccharomyces cerevisiae), P38431 (parent)
chain: MSINICRDNHDPFYRYKMPPIQAKVEGRGNGIKTAVLNVADISHALNRPAPYIVKYFGFELGAQTSISVDKDRYLVNGVHEPAKLQDVLDGFINKFVLCGSCKNPETEIIITKDNDLVRDCKACGKRTPMDLRHKLSSFILKNPPDSVSGSKKKKKAATASANVRGGGLSISDIAQGKSQNAPSDGTGSSTPQHHDEDEDELSRQIKAAASTLEDIEVKDDEWAVDMSEEAIRARAKELEVNSELTQLDEYGEWILEQAGEDKENLPSDVELYKKAAELDVLNDPKIGCVLAQCLFDEDIVNEIAEHNAFFTKILVTPEYEKNFMGGIERFLGLEHKDLIPLLPKILVQLYNNDIISEEEIMRFGTKSSKKFVPKEVSKKVRRAAKPFITWLETAESDDDEEDDE
B2: Eukaryotic translation initiation factor 5 (Saccharomyces cerevisiae), P38431 (parent)
chain: B1 chain
partner: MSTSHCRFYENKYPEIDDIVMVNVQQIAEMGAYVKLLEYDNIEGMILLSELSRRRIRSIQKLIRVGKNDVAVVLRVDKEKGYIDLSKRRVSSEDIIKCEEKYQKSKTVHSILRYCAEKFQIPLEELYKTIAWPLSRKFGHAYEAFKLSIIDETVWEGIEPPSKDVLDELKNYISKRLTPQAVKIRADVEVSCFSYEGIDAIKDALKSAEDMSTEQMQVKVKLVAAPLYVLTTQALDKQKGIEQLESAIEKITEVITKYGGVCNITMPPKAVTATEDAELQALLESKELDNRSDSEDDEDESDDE

Variants of: B1
Details: with if2g_yeast GCD11, P32481
if2g_yeast GCD11, P32481, sequence (P32481 whole entry): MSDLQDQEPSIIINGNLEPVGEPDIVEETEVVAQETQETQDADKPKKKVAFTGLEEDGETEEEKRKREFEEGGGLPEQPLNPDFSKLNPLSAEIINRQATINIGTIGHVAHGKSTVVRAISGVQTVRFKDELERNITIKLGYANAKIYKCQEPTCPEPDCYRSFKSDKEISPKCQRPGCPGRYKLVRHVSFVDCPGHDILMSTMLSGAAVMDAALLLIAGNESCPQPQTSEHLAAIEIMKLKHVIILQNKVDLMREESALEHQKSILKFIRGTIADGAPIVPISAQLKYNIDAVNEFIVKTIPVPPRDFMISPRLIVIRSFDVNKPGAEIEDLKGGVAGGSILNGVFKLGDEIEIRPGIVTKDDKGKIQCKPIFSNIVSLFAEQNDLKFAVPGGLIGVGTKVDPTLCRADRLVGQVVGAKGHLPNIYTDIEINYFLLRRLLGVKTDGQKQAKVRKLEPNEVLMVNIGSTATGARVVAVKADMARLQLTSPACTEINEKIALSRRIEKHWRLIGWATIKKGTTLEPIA

Q: With W391F as the variant, how does the “effect of a mutation on the interaction” value read?
A: Its value is “decreasing interaction”.

Variants of: B2
Details: with if2a_yeast SUI2, P20459

Q: Which “effect of a mutation on the interaction” value does the source give for W391F here?
A: Its value is “decreasing interaction”.
